Where a chain is given by its changes, count along the chain named.
Legend:
Details in all cases: protein: recombinant; tags: His-MBP removed; tRNA fold
Arc1p dN [1] = biological target: T1, Arc1p dN (Saccharomyces cerevisiae, UniProt P46672 132-376, del1-131); test: competition fluorescence polarization; ITC (Arc1p): 25 mM Tris-HCl pH 7.4, 150 mM NaCl, 2 mM MgCl2, 25 °C. FP and competition FP: 25 mM Tris-HCl pH 7.5, 150 mM NaCl (Arc1p) or 50 mM NaCl (Trbp111), 2 mM MgCl2, room temperature
T1 sequence: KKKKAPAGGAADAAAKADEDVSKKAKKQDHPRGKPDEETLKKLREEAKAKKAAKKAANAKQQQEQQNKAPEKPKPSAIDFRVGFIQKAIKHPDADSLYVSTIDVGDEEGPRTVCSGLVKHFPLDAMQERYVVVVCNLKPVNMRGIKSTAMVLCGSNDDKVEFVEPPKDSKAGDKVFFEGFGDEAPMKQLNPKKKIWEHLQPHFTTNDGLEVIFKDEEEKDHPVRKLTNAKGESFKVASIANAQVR

Arc1p = biological target: T2, Arc1p (Saccharomyces cerevisiae, UniProt P46672 1-376); test: as above
T2 sequence: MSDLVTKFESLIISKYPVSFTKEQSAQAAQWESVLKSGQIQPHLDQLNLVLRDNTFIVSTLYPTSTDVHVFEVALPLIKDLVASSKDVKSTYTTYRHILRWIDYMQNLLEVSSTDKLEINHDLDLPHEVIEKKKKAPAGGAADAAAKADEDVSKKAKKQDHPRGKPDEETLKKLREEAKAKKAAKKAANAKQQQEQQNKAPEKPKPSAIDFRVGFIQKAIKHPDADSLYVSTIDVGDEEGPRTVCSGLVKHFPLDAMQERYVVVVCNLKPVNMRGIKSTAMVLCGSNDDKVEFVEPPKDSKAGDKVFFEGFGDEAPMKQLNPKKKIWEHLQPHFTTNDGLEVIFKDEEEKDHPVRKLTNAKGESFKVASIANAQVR

Arc1p dN R274A = biological target: T3, Arc1p dN R274A (Saccharomyces cerevisiae, UniProt P46672 132-376, R274A;del1-131); test: ITC; ITC (Arc1p): 25 mM Tris-HCl pH 7.4, 150 mM NaCl, 2 mM MgCl2, 25 °C. FP and competition FP: 25 mM Tris-HCl pH 7.5, 150 mM NaCl (Arc1p) or 50 mM NaCl (Trbp111), 2 mM MgCl2, room temperature
T3 sequence: T1 sequence with R143A

Arc1p dN S278A = biological target: T4, Arc1p dN S278A (Saccharomyces cerevisiae, UniProt P46672 132-376, S278A;del1-131); test: as above
T4 sequence: T1 sequence with S147A

Arc1p dN [2] = biological target: T1, Arc1p dN; test: as above
[3] = biological target: T5, Arc1p dN V271A/M273A/M281A (Saccharomyces cerevisiae, UniProt P46672 132-376, V271A;M273A;M281A;del1-131); test: as above
T5 sequence: T1 sequence with V140A, M142A, M150A

Arc1p dN K269A = biological target: T6, Arc1p dN K269A (Saccharomyces cerevisiae, UniProt P46672 132-376, K269A;del1-131); test: as above
T6 sequence: T1 sequence with K138A

B1: tRNAIle WT (structured_RNA)
RNA: AGGCUUGUAGCUCAGGUGGUUAGAGCGCACCCCUGAUAAGGGUGAGGUCGGUGGUUCAAGUCCACUCAGGCCUACCA
B1 gave an IC50 (Arc1p dN [1]) of 0.363 ± 0.0964 µM, an IC50 (Arc1p) of 0.948 ± 0.241 µM and a Kd (Arc1p dN R274A) of 2.98 ± 0.674 µM. For the same binder, the Kd (Arc1p dN S278A) was 0.845 ± 0.149 µM, the Kd (Arc1p dN [2]) was 0.321 ± 0.101 µM and the Kd [3] was 0.544 ± 0.215 µM. For the same binder, the Kd (Arc1p dN K269A) was 1.5 ± 0.055 µM.

— article PMC11286949, “Structural basis of tRNA recognition by the widespread OB fold”
